Experiment [1] has as its target T1, D-type cyclins (Mus musculus, UniProt P25322).
T1 construct: made in house; host or cells: in vitro transcription (Stratagene) and translation (rabbit reticulocyte system, Promega)
The experiment can be described thus: In vitro binding of [35S]methionine-labeled D-type cyclins to GST fusion proteins. Particulars: cyclin D1. How it is done: A BglII fragment encoding amino acids 176-761 of DMP1 (FIG. 1) is subcloned into the BamHI site of the pGEX-3X plasmid (Pharmacia, Uppsala Sweden), and overnight cultures of transformed bacteria are diluted 10-fold with fresh medium, cultured for 2-4 more hours at 37° C., and induced with 1 mM isopropyl-β-D-thiogalactopyranoside (IPTG) for 1 hour. Induced bacteria are lysed by sonication in phosphate-buffered saline (PBS) containing 1% Triton X-100, and recombinant glutathione-S-transferase (GST)-DMP1 protein is purified by absorption and elution from glutathione-Sepharose beads as described (35). […] After 2 hours at 4° C., the beads are collected by centrifugation, washed 4 times with IP Kinase buffer, and the bound proteins are denatured and analyzed by electrophoresis on 11% polyacrylamide gels containing sodium dodecyl sulfate (SDS) (1).
Because DMP1 interacted with cyclin D2 in yeast, the ability of a glutathione S-transferase (GST)-DMP1 fusion protein to bind D-type cyclins in vitro is examined. […] Bound cyclins recovered on washed glutathione-Sepharose beads are analyzed by electrophoresis on denaturing gels. […] GST-DMP1 is less efficient than GST-RB in binding cyclins D2 and D3 (˜4-fold less binding), and under these conditions, an interaction with D1 is not detected (lanes 3, 7, 11). […]

Experiment [2] deals with ARF-null MEFs. The experiment can be described thus: BrdU incorporation / cell cycle arrest in ARF-null MEFs. Particulars: retroviral infection. Type of experiment: cell-based, mouse. How it is done:
(§1) BrdU incorporation and immunofluorescence. Wild-type or ARF-null MEFs (4×10^4 cells) were seeded on gelatin-coated coverslips 16 hours before virus infection. Cells were infected three times with empty vector, or vectors expressing murine DMP1, human c-Myc, human E2F-1, or human Ets1. Cells were labeled 36 hours after virus infection with bromodeoxyuridine (BrdU, Sigma) for 14 hours in complete medium. For pulse labeling, MEFs were treated with 2 μM4-HT for 36 hours and labeled with BrdU for three hours at different intervals throughout the inductive phase. Cells were fixed in ice-cold methanol-acetone (1:1) for 10 min at −20° C. and then were stained with affinity-purified antibodies to DMP1 (AF) [Hirai and Sherr, Mol. Cell. […]
(§2) Based on the above observations, it was determined as to whether introduction of DMP1 would induce synthesis of the endogenous ARF protein in normal diploid fibroblast strains. […] Although the blot was normalized for protein input, the levels of p19^ARF induced by DMP1 were calculated to be 2-fold higher than those induced by Myc, because fewer cells were productively infected with the DMP1 virus in this experiment (see FIG. 15A).
(Dividing cells build labelled thymidine or BrdU into new DNA.)

Experiment [3] relates to wild-type MEFs. The experiment can be described thus: BrdU incorporation / cell cycle arrest in wild-type MEFs. The experiment is classed as cell-based, mouse. Particulars: retroviral infection. How it is done:
as §1, §2

Experiment [4] has as its system 281 bp ARF promoter fragment. The experiment can be described thus: Transactivation of ARF promoter-luciferase reporter in NIH-3T3 cells. Particulars: NIH-3T3, 281 bp ARF promoter fragment-luciferase. The experiment is classed as cell-based, mouse. How it is done:
Transactivation assays. NIH-3T3 cells were transfected with 4 μg of pGL2-ARFpro BamHI or its DMP1 binding site mutant, with or without increasing amount of pFLEX-DMP1, pEVRFO-Ets1, pCMV-Ets2, pRcRSV-Elfl, pdEB-Fli1, p(IEB-EWS-Fli1 or pCMV-E2F-1 (89-437), and 4 μg β-actin SEAP control vectors [Inoue and Sherr, Mol. Cell. Biol. 18: 1590-1600 (1998); Inoue et al., J. Biol. Chem. 273:29188-29194 (1998); Davis and Roussel, Gene 171:265-269 (1996); Baily et al., Mol. Cell. Biol. 14:3230-3241 (1994)]. Transfections and normalization of luciferase levels with internal control SEAP levels were performed as described [Inoue and Sherr, Mol. Cell. Biol. 18:1590-1600 (1998)].
Similarly, DMP1 deletion mutants defective in transactivation [Inoue and Sherr, Mol. Cell. […] Mutation of the DMP1 binding site within the ARF promoter [changing CCCGGATGC, (SEQ ID NO:33) to CCCGTCGAC, (SEQ ID NO:42)] also completely abolished transactivation by wild-type DMP1 (FIG. 14C, mutant reporter). Therefore, sequences within the −189 to −181 ARF promoter segment were the only ones responsible for DMP1-mediated transactivation. Although Ets1 could bind to a 23 base pair oligonucleotide containing the DMP1 consensus site (FIG. 14B), several Ets proteins were unable to induce significant reporter gene expression from the more complex 281 base pair ARF promoter (FIG. 14C). […]
(In general: In a reporter assay the amount or activity of a reporter protein is the signal.)

Experiment [5] relates to wild-type MEFs. The experiment can be described thus: Apoptosis assay in wild-type MEFs deprived of serum. Type of experiment: cell-based, mouse. How it is done:
Apoptosis assays. Wild-type MEFs infected with the indicated retroviruses for 36 hours were starved for serum for 24 hours. Viability was determined by trypan blue dye exclusion, and DNA fragmentation was monitored by a terminal deoxynuclectidyl transferase (FACS-TUNEL) assay and by measurement of subdiploid DNA content of propidium iodide-stained nuclei [Zindy et al., Genes Dev. 12:2424-2433 (1998)].
On the other hand, MEFs overexpressing c-Myc, E2F-1, or E1A are exquisitely sensitive to apoptosis. […] 12:2424-2433 (1998); De Stanchina et al., Genes Dev. 12:2434-2442 (1998)].

Experiment [6] deals with p19ARF. Description: Induction of endogenous p19ARF protein in retrovirus-infected MEFs. The experiment is classed as cell-based, mouse. Conditions: early passage MEFs, retroviral infection. How it is done:
Virus production and infection. Human kidney 293T cells were transfected with a helper ecotropic retrovirus plasmid defective in psi-2 packaging sequences, together with pSRα vectors containing murine DMP1, human c-Myc, human E2F-1, or human Ets1 cDNAs [Zindy, et al., Genes Dev. 12:2424-2433 (1998); Inoue and Sherr, J. Biol. Chem. 273:29188-29194 (1998)]. Viruses were harvested every 6 hours 24-72 hours after transfection, filtered and stored at 4° C. until used for infection [Zindy, et al., Genes Dev. 12:2424-2433 (1998)]. In order to construct a retroviral vector containing DMP1 linked to a mutated tamoxifen-responsive element of the estrogen receptor (DMP1-ER™), a 3′ 0.3 kb EcoNI DNA fragment of murine DMP1 cDNA was amplified by PCR using
RNA and protein expression. Quantitative RT-PCRs employed specific primers for murine ARF exon 1β (30 cycles) and for β-actin (20 cycles) used as a control [Zindy et al., Oncogene 15:203-211 (1997)]. […]
as §2

T1 sequence (P25322 whole entry): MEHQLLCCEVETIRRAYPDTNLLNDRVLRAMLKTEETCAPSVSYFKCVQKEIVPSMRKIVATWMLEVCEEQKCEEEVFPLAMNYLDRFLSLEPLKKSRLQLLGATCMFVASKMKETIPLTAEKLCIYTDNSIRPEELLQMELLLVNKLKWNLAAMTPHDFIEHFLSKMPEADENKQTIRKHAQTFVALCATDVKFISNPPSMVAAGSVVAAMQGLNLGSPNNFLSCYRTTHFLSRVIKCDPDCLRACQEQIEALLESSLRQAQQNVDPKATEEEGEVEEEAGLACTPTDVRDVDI

B1: GST-DMP1: GST fused to residues 176-761 of DMP1, bacterially synthesized (protein)
chain: GIKDATEIIFEMSKDERKDFYRTIAWGLNRPLFAVYRRVLRMYDDRNHVGKYTPEEIEKLKELRIKHGNDWATIGAALGRSASSVKDRCRLMKDTCNTGKWTEEEEKRLAEVVHELTSTEPGDIVTQGVSWAAVAERVGTRSEKQCRSKWLNYLNWKQSGGTEWTKEDEINLILRIAELDVADENDINWDLLAEGWSSVRSPQWLRSKWWTIKRQIANHKDVSFPVLIKGLKQLHENQKNNPVLLENKSGSGVPNSNCNSSVQHVQIRVARLEDNTAISPSPMAALQIPVQITHVSSTDSPAASADSETITLNSGTLQTFEILPSFPLQPTGTPGTYLLQTSSSQGLPLTLTTNPTLTLAAAAPASPEQIIVHALSPEHLLNTSDNVTVQCHTPRVIIQTVATEDITSSLSQEELTVDSDLHSSDFPEPPDALEADTFPDEIPRPKMTIQPSFNNAHVSKFSDQNSTELMNSVMVRTEEEIADTDLKQEEPPSDLASAYVTEDLESPTIVHQVHQTIDDETILIVPSPHGFIQASDVIDTESVLPLTTLTDPIFQHHQEASNIIGSSLGSPVSEDSKDVEDLVNCH
modifications: left off: a dimerising Fc or GST
notes: GST fused to residues 176-761 of DMP1, bacterially synthesized
With B1, the “interaction with D1” value in experiment [1] was “not detected”.

B2: Ets1: Ets family transcription factor (protein, UniProt P27577 1-440, looked up)
Protein C-ets-1: MKAAVDLKPTLTIIKTEKVDLELFPSPDMECADVPLLTPSSKEMMSQALKATFSGFTKEQQRLGIPKDPRQWTETHVRDWVMWAVNEFSLKGVDFQKFCMSGAALCALGKECFLELAPDFVGDILWEHLEILQKEDVKPYQVNGANPTYPESCYTSDYFISYGIEHAQCVPPSEFSEPSFITESYQTLHPISSEELLSLKYENDYPSVILQDPLQTDTLQTDYFAIKQEVLTPDNMCLGRASRGKLGGQDSFESVESYDSCDRLTQSWSSQSSFNSLQRVPSYDSFDYEDYPAALPNHKPKGTFKDYVRDRADLNKDKPVIPAAALAGYTGSGPIQLWQFLLELLTDKSCQSFISWTGDGWEFKLSDPDEVARRWGKRKNKPKMNYEKLSRGLRYYYDKNIIHKTAGKRYVYRFVCDLQSLLGYTPEELHAMLDVKPDAD
Regarding B2, the cell cycle arrest result in experiment [2] and in experiment [3] was “behaved indistinguishably from those infected with the control vector” in each case. The “ARF promoter reporter gene expression” value in experiment [4] is “slightly inhibitory”.

B3: Myc: known rapid inducer of p19ARF protein expression used as positive control (protein, UniProt P01108 1-454, looked up)
Myc proto-oncogene protein: MDFLWALETPQTATTMPLNVNFTNRNYDLDYDSVQPYFICDEEENFYHQQQQSELQPPAPSEDIWKKFELLPTPPLSPSRRSGLCSPSYVAVATSFSPREDDDGGGGNFSTADQLEMMTELLGGDMVNQSFICDPDDETFIKNIIIQDCMWSGFSAAAKLVSEKLASYQAARKDSTSLSPARGHSVCSTSSLYLQDLTAAASECIDPSVVFPYPLNDSSSPKSCTSSDSTAFSPSSDSLLSSESSPRASPEPLVLHEETPPTTSSDSEEEQEDEEEIDVVSVEKRQTPAKRSESGSSPSRGHSKPPHSPLVLKRCHVSTHQHNYAAPPSTRKDYPAAKRAKLDSGRVLKQISNNRKCSSPRSSDTEENDKRRTHNVLERQRRNELKRSFFALRDQIPELENNEKAPKVVILKKATAYILSIQADEHKLTSEKDLLRKRREQLKHKLEQLRNSGA
On to B3, for which the “apoptosis / cell death” value in experiment [5] is reported as “induced cell death”. Further, the ARF protein synthesis result in experiment [6] is reported as “induced ARF protein synthesis”.

For the origin of these results see patent US6673902B2, “Cyclin D binding factor, and uses thereof” (St. Jude Children's Research Hospital, priority 1996, dated 2004).
